Key:
[1] = target: human KLK1 (human, UniProt P06870 25-262, limits assumed); experiment: column 7: KLK1 activity assay, 3 nM KLK1
[2] = target: human KLK7 (human, UniProt P49862 30-253, limits assumed); experiment: column 6: KLK7 activity assay, 5 nM KLK7
Method: KLK7 selectivity assay was performed at room temperature in a 384-well plate (black, low-volume round bottom, Corning #4514) with a final reaction volume of 15 μL. Inhibitor samples were diluted to 3× final concentration in assay buffer (75 mM Tris, pH 8.0, 150 mM NaCl, 0.01% TWEEN® 20). Reactions lacking inhibitor and reactions lacking enzyme were used as 100% and 0% activity controls, respectively. Inhibitor or control samples (5 μL) were added to the plate followed by 5 μL KLK7 (Genentech) in assay buffer at a final concentration of 5 nM. After 30 min, 5 μL of Suc-Leu-Leu-Val-Tyr-AMC (Bachem I-1395, 25 mM stock solution in water) in assay buffer was added at a final concentration of 100 μM. […] Reaction rates (expressed as RFU/s) were calculated by linear regression in the range 2040-4488 seconds. Reaction rates were normalized to the values of the 0% and 100% activity controls and fit with a 4-parameter equation to calculate IC₅₀ values. […]

[3] = target: T1, trypsin isolated from bovine pancreas (bovine, UniProt P00760 24-246); experiment: column 9: trypsin activity assay, 0.25 nM trypsin
T1 construct: also called bovine trypsin
Method: 0.25 nM trypsin isolated from bovine pancreas and 0.19-100 nM anti-KLK5 inhibitors were pre-incubated for 30 minutes prior to addition of 50 μM Boc-VPR-AMC. […] The results for the KLK5 inhibitors are depicted as follows: FIG. 9A: Spink9.SRE.Fc, FIG. 9B: mAb1108, FIG. 9C: 3-3F5, FIG. 9D: 10C8, FIG. 9E: 9B6, FIG. 9F: 9F2, FIG. 9G: 9H3, FIG. 9H: 9H5, FIG. 9I: 8B7, FIG. 9J: 2B11, FIG. 9K: 8F5, FIG. 9L: 10C5, FIG. 9M: 10H3 and FIG. 9N: 2-3F4.
(§1) Trypsin selectivity assay was performed at room temperature in a 384-well plate (black, low-volume round bottom, Corning #4514) with a final reaction volume of 15 μL. Inhibitor samples were diluted to 3× final concentration in assay buffer (75 mM Tris, pH 8.0, 150 mM NaCl, 0.01% TWEEN® 20). Reactions lacking inhibitor and reactions lacking enzyme were used as 100% and 0% activity controls, respectively. Inhibitor or control samples (5 μL) were added to the plate followed by 5 μL trypsin (Sigma Aldrich T8003, Lot SLBM2321V, 42.0 μM stock solution in 1 mM HCl) in assay buffer at a final concentration of 0.25 nM. After 30 minutes, 5 μL of Boc-Val-Pro-Arg-AMC (Bachem I-1120, 31.3 mM stock solution in water) in assay buffer was added at a final concentration of 50 μM. […] Reaction rates (expressed as RFU/s) were calculated by linear regression in the range 204-3570 seconds. Reaction rates were normalized to the values of the 0% and 100% activity controls and fit with a 4-parameter equation to calculate IC₅₀ values. In the case of bivalent inhibitors, the raw IC₅₀ value was multiplied by two.

[4] = target: human KLK4 (human, UniProt Q9Y5K2 31-254, limits assumed); experiment: column 8: KLK4 activity assay, 2 nM KLK4
Method: as §1, with “KLK4” for “Trypsin”, “KLK4 (R&D Systems, 1719-SE,” for “trypsin (Sigma Aldrich T8003,”, “MSY0116011, activated according to R&D systems protocol)” for “SLBM2321V, 42.0 μM stock solution in 1 mM HCl)”, “2” for “0.25”, “510-3570” for “204-3570”
In FIG. 8, the ability of Spink9.SRE.Fc, mAb1108 or 12 selected anti-KLK5 antibodies to inhibit the proteolysis of the substrate, Boc-VPR-AMC, by human KLK4 was assessed using an enzymatic assay. […] The results were expressed as a percentage of maximum KLK4 activity (% control).

Measured: IC50

human KLK7, sequence (P49862 30-253 limits assumed): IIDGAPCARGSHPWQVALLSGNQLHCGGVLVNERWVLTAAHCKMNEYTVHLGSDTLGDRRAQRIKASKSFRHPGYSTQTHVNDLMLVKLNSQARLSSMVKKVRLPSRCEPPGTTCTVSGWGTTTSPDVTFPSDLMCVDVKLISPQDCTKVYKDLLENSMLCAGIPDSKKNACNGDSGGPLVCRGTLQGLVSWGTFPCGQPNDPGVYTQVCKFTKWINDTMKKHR
human KLK4, sequence (Q9Y5K2 31-254 limits assumed): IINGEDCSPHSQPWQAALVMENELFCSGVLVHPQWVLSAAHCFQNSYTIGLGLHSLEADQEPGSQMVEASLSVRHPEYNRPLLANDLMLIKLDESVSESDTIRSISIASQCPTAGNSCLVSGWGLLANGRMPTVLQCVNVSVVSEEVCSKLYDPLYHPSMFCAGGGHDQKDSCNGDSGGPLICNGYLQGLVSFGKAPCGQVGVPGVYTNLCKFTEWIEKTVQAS
human KLK1, sequence (P06870 25-262 limits assumed): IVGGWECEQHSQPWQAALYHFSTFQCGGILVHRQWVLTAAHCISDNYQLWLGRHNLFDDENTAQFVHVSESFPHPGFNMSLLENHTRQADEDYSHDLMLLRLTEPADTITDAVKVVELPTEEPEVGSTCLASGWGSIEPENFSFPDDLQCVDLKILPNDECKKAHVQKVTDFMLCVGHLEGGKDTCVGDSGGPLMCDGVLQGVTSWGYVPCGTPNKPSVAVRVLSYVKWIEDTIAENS
T1 sequence (P00760 24-246): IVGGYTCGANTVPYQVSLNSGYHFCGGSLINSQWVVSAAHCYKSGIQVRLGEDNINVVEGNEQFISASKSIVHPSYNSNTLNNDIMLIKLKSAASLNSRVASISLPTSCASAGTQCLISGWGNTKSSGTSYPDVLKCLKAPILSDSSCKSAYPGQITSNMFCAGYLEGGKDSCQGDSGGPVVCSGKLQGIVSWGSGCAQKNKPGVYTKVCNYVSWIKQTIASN

B1: 2-3F4 (antibody, V domains shown)
VH: QSVEESRGGLIKPTDTLTLTCTASGFSLSNYGVSWVRQAPGNGLEYIGFIGYGGSTYYASWAKSRSTITRNTNLNTVTLQMTSLTAADTATYFCARLCGVDCADALDSWGPGTLVTVSS
VL: AYYMTQTPASVEVAVGGTVTIKCQASEDIGSYCSWYQQKPGQPPKLLIYDASDLASGVPSRFKGSGSGTDFTLTISGVQCDDAATYYCQQDYTGNNVDNTFGGGSEVVVK
> 100 nM: all assays above

B2: 9B6 (antibody, V domains shown)
VH: QSVKESEGGLFKPTDNLTLTCTVSGFSLSNYGVTWVRQAPGNGLEYIGFIGSGGSAYYASWAKSRSTITRNTNLNTVTLKMTSLTAADTATYFCARDDVGGGKSLDIWGPGTLVTVSS
VL: NIVMTQTPASVEVAVGGTVVIKCQASQNIGDYLSWYQQKPGQRPKLLIYSASTLASGVPSRFKGSGSGTQFTLTISDLECADAATYYCHQDYTSNDVENTFGGGTEVVVK
> 100 nM: all assays above

B3: 10C8 (antibody, V domains shown)
VH: QSVKESEGGLFKPTDNLTLTCTVSGFSLSSYGVSWVRQAPGNGLEYIGFIGSGGFAYYASWAKSRSTITRNTNLNTVTLKMTSLTAADTATYFCARDDVGGGRSLDIWGPGTVVTVSS
VL: NIVMTQTPASVEVAMGGTVIIKCQASQSISTYLSWYQQKPGQPPKLLIYSASTLASGVSSRFEGSGSGTQFTLTISGVQCADAATYYCHQDYTSNNVDNTFGGGTEVVVK
> 100 nM: all assays above

B4: 9H5 (antibody, V domains shown)
VH: QSVKESEGGLFKPTDNLTLTCTVSGFSLSSYGVSWVRQAPGNGLEYIGFIGSGGFAYYASWAKSRSTITRNTNLNTVTLKMTSLTAADTATYFCARDDVGGGKSLDIWGPGTVVTVSV
VL: NIVMTQTPASVEAAVGGTVTINCQASQSISSYLSWYQQKSGQRPKLLIFSASTLASGVPSRFTGSGSGTQFTLTISDLQCADAATYYCHQDYTSSNVDNTFGGGTEVVVK
notes: Rabbit monoclonal; also called Chimeric 9H5; KLK5.9H5 (complex sample)
> 100 nM: all assays above

B5: 9H3 (antibody, V domains shown)
VH: QSVKESEGGLFKPTDTLTLTCTVSGFSLSGYGVSWVRQAPGKGLEYIGFIGSGGSAYYASWAKSRSTITRNTNLNTVTLKMTRLTAADTATYFCARDNVGGDMSLDIWGPGTLVTVSS
VL: DIVMTQTPASVSEPVGGTVTIKCQASQNINNYLSWYQQKPGQPPKQLIYAASTLASGVPSRFKGSGSGTQFTLTISDLECADAATYYCHQDYTSNNVDNTFGGGTEVVVK
> 100 nM: all assays above

B6: 8B7 (antibody, V domains shown)
VH: QSVKESEGGLFKPTDNLTLTCTVSGFSLSNYGVTWVRQAPGNGLEYIGFIGSSGSAYYASWAKSRSTITRNTNLNTVTLKMTSLTAADTATYFCARDDVGGGKSLDIWGPGTLVTVSS
VL: NIVMTQTPASVEVAVGGTVTIKCQASQSIGSYLSWYQQKPGQPPKLLIYDASNLASGVPSRFKGSGSGTQFTLSISDLECADAATYYCHQDYTSNNVDNTFGGGTEVVIK
> 100 nM: all assays above

B7: 9F2 (antibody, V domains shown)
VH: QSVKESEGGLFKPTDNLTLTCTVSGFSLSSYGVSWVRQAPGNGLEYIGFIGSGGSPYYASWAKSRSTITRNTNLNTVTLKMTSLTAADTATYFCARDDVGGGKSLDIWGPGTLVTVSS
VL: NIVMTQTPASVEVAVGGTVIIKCQASQSISNYLSWYHQKSGQRPRLLIYSASTLASGVPSRFKGSGSGTQFTLTISDLECADAATYYCHQDYTSNSVDNTFGGGTEVVVK
> 100 nM: all assays above

B8: 2B11 (antibody, V domains shown)
VH: QSVKESEGGLFKPTDTLTLTCTVSGFSLINYGVSWVRQAPGKGLEWIGYIGSAGSTYYATWAKSRATITRNTNLNTVTLKMTSLTAADTATYFCARAAYSAGSADAEDIWGPGTLVTVSS
VL: AYYMTQTPASVEAAVGGTVTIKCQASQSISNYVAWYQQKPGQPPKLLIYRASTLASGVSSRFSGSGSGTEFTLTISDLECADAATYYCHQGYSSSNVDNIFGGGTEVVVK
> 100 nM: all assays above

B9: 3-3F5 (antibody, V domains shown)
VH: QSVKESEGGLFKPTDTLTLTCTVSGFSLNDYGVSWVRQAPGNGLEWIGAIGSSGVAWYANWAKGRSTITRNTNLNTVTLKMASLTAADTATYFCARDRDYGYRADDATSGMDLWGPGTLVTVSS
VL: AYDMTQTPASVEAAVGGTVTIKCQASESIGNALAWYQQKPGQPPKLLIYDASDLASGVPSRFKGSGSGTQFTLTISGVECADAATYYCQQGDSHNNVDNIFGGGTEVVVK
notes: Rabbit monoclonal; also called Chimeric 3-3F5
> 100 nM: all assays above

B10: 8F5 (antibody, V domains shown)
VH: QSVKESEGGLFKPTDTLTLTCTVSGFSLSSYPISWVRQAPGNGLEWIGYITSEYGVAYYATWAESRSTITRNTNLNTVTLKMTSLTAADTATYFCVRENPTYGYAYDAWGPGTLVTVSS
VL: AYDLTQTPASVEAAVGGTVTINCQASESIGNELSWYQQKSGQPPKLLIYQASTLASGVPSRFKGSGSGTDFTLTISDLECADAATYYCAQGFSSSGVENVFGGGTEVVVK
> 100 nM: all assays above

B11: 10C5 (antibody, V domains shown)
VH: QSLEESGGGLVKPTDTLTLTCTVSGFSLSSYGVTWVRQAPGRGLEWIGYITSNYGVSYYASWAKSRSTITRNTNLNTVTLKMTSLTAADTATYFCARENPDYGYAYDAWGPGTLVTVSV
VL: AYDMTQTPASLEAAVGGTVTINCQASESISNELSWYQQKPGQPPDLLIYYASTLASGVPSRFKGSGSGTEFTLTISDLECADAATYYCAQGFGSSGVENVFGGGTEVVVK
notes: Rabbit monoclonal; also called Chimeric 10C5; KLK5.10C5 (complex sample)
> 100 nM: all assays above

B12: 10H3 (antibody, V domains shown)
VH: QSVKESEGGLIKPTDTLTLTCTVSGFSLSTFAINWVRQAPGNGLEWIGAIGRGGSAYYASWAKSRSTITKNTNLNTVTLKMTRPTAADTATYFCARENAGSGWGELDIWGPGTLVTVSS
VL: AYEMTQTPASVEVAVGGTVTINCQASESISSDLAWYQQKPGQRPKLLIYAASTLASGVPSRFKGSGSGTEFTLSISGVQCADAATYYCQQGYTWNNVDNVFGGGTEVVVK
notes: also called KLK5.10H3 (complex sample)
> 100 nM: all assays above

Reference: US20200040103A1 (Genentech, published 2020)
